Measurements published in the RNAGym collection of RNA variant scans (doi:10.7554/elife.80360).

B1: CPEB3 Ribozyme (parent)
chain: GGGGGCCACAGCAGAAGCGUUCACGUCGCGGCCCCUGUCAGAUUCUGGUGAAUCUGCGAAUUCUGCUGU

Variants of: B1
Experiment: self-cleavage, relative activity (ratio to wild type); higher = more cleavage; co-transcriptional

First: GGGGGCCACAGCAGAAGCGUUCACGUCGUGGCCCCUGUCAGAUUCUGGUGAAUCUGCGUAUUCUGCUGU
Second: GGGGGCCACAGCAGAAGCGUUCACGUCGUGGCCCCUGUCAUAUUCUGGUGAAUCUGCGAAUUCUGCUGU
The self-cleavage of the first is higher: 0.232 for the first, 0.191 for the second.

Compared with GGGGGCCACAGCAGAAGCGUUCACGUCGUGGCCCCUGUGAGAUUCUGGUGAAUCUGCGAAUUCUGCUGU, GGGGGCCACAGCAGAAGCGUUCACGUCGUGGCCCCUGUCAGAUUCUGGUGAAUCUGCGAAUUAUGCUGU is higher in self-cleavage: 0.163 for the first, 0.176 for the second.

Compared with GGGGGCCACAGCAGAAGCGUUCACGUCGUGGCCCCUGUCAGAUUCUGGUGAAUCUGCGAAUUGUGCUGU, GGGGGCCACAGCAGAAGCGUUCACGUCGUGGCUCCUGUCAGAUUCUGGUGAAUCUGCGAAUUCUGCUGU is higher in self-cleavage: 0.198 for the first, 0.511 for the second.

First: GGGGGCCACAGCAGAAGCGUUCACGUCGUGGCCCCUGUCAGAUUCUGGUGAAUCUGCGAAUACUGCUGU
Second: GGGGGCCACAGCAGAAGCGUUCACGUCGUGGCCCCUGUCAGAUUCGGGUGAAUCUGCGAAUUCUGCUGU
The self-cleavage of the first is lower: 0.15 for the first, 0.571 for the second.

Compared with GGGGGCCACAGCAGAAGCGUUCACGUCGUGGCCCCUGUCAGAUUCCGGUGAAUCUGCGAAUUCUGCUGU, GGGGGCCACAGCAGAAGCGUUCACGUCGUGGCCCCUGUCAGCUUCUGGUGAAUCUGCGAAUUCUGCUGU is lower in self-cleavage: 0.433 for the first, 0.229 for the second.

First: GGGGGCCACAGCAGAAGCGUUCACGUCGUGGCCCCUGUCAGGUUCUGGUGAAUCUGCGAAUUCUGCUGU
Second: GGGGGCCACAGCAGAAGCGUUCACGUCGUGGCCCCUGUCAGAUUCUGGUGAAUCUGCGAAUUCUGCUCU
The self-cleavage of the first is lower: 0.246 for the first, 0.571 for the second.

First: GGGGGCCACAGCAGAAGCGUUCACGUCGUGGCCCCUGUCAGAUUCUGCUGAAUCUGCGAAUUCUGCUGU
Second: GGGGGCCACAGCAGAAGCGUUCACGUCGUGGCCCCGGUCAGAUUCUGGUGAAUCUGCGAAUUCUGCUGU
The self-cleavage of the first is higher: 0.61 for the first, 0.147 for the second.

Going from GGGGGCCACAGCAGAAGCGUUCACGUCGUGGCCCCCGUCAGAUUCUGGUGAAUCUGCGAAUUCUGCUGU to GGGGGCCACAGCAGAAGCGUUCACGUCGUGGCCCAUGUCAGAUUCUGGUGAAUCUGCGAAUUCUGCUGU, the self-cleavage falls from 0.244 to 0.186.

Compared with GGGGGCCACAGCAGAAGCGUUCACGUCGUGGCCCGUGUCAGAUUCUGGUGAAUCUGCGAAUUCUGCUGU, GGGGGCCACAGCAGAAGCGUUCACGUCGUGGCCCCUGUCAGAUUCUGGUGCAUCUGCGAAUUCUGCUGU is higher in self-cleavage: 0.237 for the first, 0.356 for the second.

Going from GGGGGCCACAGCAGAAGCGUUCACGUCGUGGCCCCUGUCAGAUUCUGGUGUAUCUGCGAAUUCUGCUGU to GGGGGCCACAGCAGAAGCGUUCACGUCGUGGCCCCUGUCAGAUACUGGUGAAUCUGCGAAUUCUGCUGU, the self-cleavage falls from 0.432 to 0.26.

Going from GGGGGCCACAGCAGAAGCGUUCACGUCGUGGCCCCUGACAGAUUCUGGUGAAUCUGCGAAUUCUGCUGU to GGGGGCCACAGCAGAAGCGUUCACGUCGUGGCCCCUGUCAGAUUCUUGUGAAUCUGCGAAUUCUGCUGU, the self-cleavage rises from 0.2 to 0.631.

Compared with GGGGGCCACAGCAGAAGCGUUCACGUCGUAGCCCCUGUCAGAUUCUGGUGAAUCUGCGAAUUCUGCUGU, GGGGGCCACAGCAGAAGCGUUCACGUCGUGGCCCCUGUCAGAUUCUGGUGAAUCUGCGAAUUCUGGUGU is lower in self-cleavage: 0.283 for the first, 0.206 for the second.

First: GGGGGCCACAGCAGAAGCGUUCACGUCGUGGCCCCUGUCAGAUUCUGGUGAAUAUGCGAAUUCUGCUGU
Second: GGGGGCCACAGCAGAAGCGUUCACGUCGUGGCCCCUGUCAGAUUCUGGUGAAUCUGCGAAUUCGGCUGU
The self-cleavage of the first is lower: 0.169 for the first, 0.206 for the second.

Going from GGGGGCCACAGCAGAAGCGUUCACGUCGUGGCCCCUGUCAGAUUCUGGUGAAUCUGCGAAUUCAGCUGU to GGGGGCCACAGCAGAAGCGUUCACGUCGUGGCCCCUGUCAGAUUCUGGUGAAUCUGCCAAUUCUGCUGU, the self-cleavage rises from 0.171 to 0.398.

Compared with GGGGGCCACAGCAGAAGCGUUCACGUCGUGGACCCUGUCAGAUUCUGGUGAAUCUGCGAAUUCUGCUGU, GGGGGCCACAGCAGAAGCGUUCACGUCGUGGCCCCUGUCAGAUUCUGGUGAAUCUCCGAAUUCUGCUGU is lower in self-cleavage: 0.295 for the first, 0.26 for the second.

Going from GGGGGCCACAGCAGAAGCGUUCACGUCGUGCCCCCUGUCAGAUUCUGGUGAAUCUGCGAAUUCUGCUGU to GGGGGCCACAGCAGAAGCGUUCACGUCGUGGCCCCUGUCAGAGUCUGGUGAAUCUGCGAAUUCUGCUGU, the self-cleavage rises from 0.158 to 0.168.

Compared with GGGGGCCACAGCAGAAGCGUUCACGUCGUGGCCCCUGUCAGAAUCUGGUGAAUCUGCGAAUUCUGCUGU, GGGGGCCACAGCAGAAGCGUUCACGUCGUGGCCCCUGUCAGAUUCUGGUGAAUCUGCGACUUCUGCUGU is higher in self-cleavage: 0.171 for the first, 0.223 for the second.

First: GGGGGCCACAGCAGAAGCGUUCACGUCGUGGCCCCUGUCAGAUUCUGGUGAAGCUGCGAAUUCUGCUGU
Second: GGGGGCCACAGCAGAAGCGUUCACGUCGUGGCCCCUGUCAGAUUCUGGUGAACCUGCGAAUUCUGCUGU
The self-cleavage of the first is higher: 0.264 for the first, 0.143 for the second.

Going from GGGGGCCACAGCAGAAGCGUUCACGUCGUGGCCCCUGUCAGAUUCUGGUGAAACUGCGAAUUCUGCUGU to GGGGGCCACAGCAGAAGCGUUCACGUCGCAGCCCCUGUCAGCUUCUGGUGAAUCUGCGAAUUCUGCUGU, the self-cleavage rises from 0.267 to 0.623.

GGGGGCCACAGCAGAAGCGUUCACGUCGUGGCCCCUGUCAGAUUCUGGUGAAUCUGCGAACUCUGCUGU showed a self-cleavage of 0.183.
